In patent US20230272011A1 (AVACTA LIFE SCIENCES, published 2023):

Columns and labels:
[1] = target: human PD-L1 (PD-1/PD-L1 blockade Bioassay, Promega) (human, UniProt Q9NZQ7 19-290, limits assumed); assay: cell-based or functional assay
[2] = target: T1, human PD-L1-Fc (R&D Systems) chimeric protein (human, UniProt Q9NZQ7 19-239); assay: SPR (Biacore), immobilised rhPD-L1-Fc, Affimer analyte
T1 construct: Bought reagent; also called rhPD-L1-Fc; huPD-L1; Fc part of the bought chimera not given, not described
Protocol: ILF dimer production from E. coli was performed as described in Example 3. Briefly, protein was purified using three stages: affinity capture, IEX, and preparative SEC. […] To analyze PD-L1-Fc binding kinetics, a Biacore T200 kinetic analysis was performed using running buffer HBS-EP+ and series S sensor CM5 (GE Healthcare) chip Fc2 immobilized with PD-L1-Fc (R&D Systems) in 10 mM sodium acetate pH 4.0 using amine coupling reagents (GE Healthcare). The concentration titration of ILF AFFIMER® polypeptides was run as analyte at a flow rate of 30 μl/min. […] with 3 mM NaOH (GE healthcare) for 20 seconds at 20 μl/min flow rate. The Fc2-1 data blank was subtracted and fit to a 1:1 Langmuir binding model (Biacore evaluation software; GE) to calculate an apparent KD value.
ILF production in E. coli was performed as described in Example 3 using protein purified using affinity capture, IEX, and preparative SEC. Protein purity was assessed using SDS-PAGE and SEC-HPLC.

[3] = target: T1, human PD-L1-Fc (R&D Systems) chimeric …; assay: binding ELISA on coated human PD-L1-Fc (table on the sheet is headed 'IC50 (nM)'; the text calls these values EC50)
Protocol: Briefly, human PD-L1-Fc (R&D Systems) chimeric protein was coated on 96 well plates at […] in carbonate buffer. After saturation with 5% casein/PBS buffer, the plates were washed and a dilution of AFFIMER® polypeptides or controls were incubated for 90 minutes. Plates were then washed and a biotinylated polyclonal antibody anti-cystatin A (R&D Systems) was added for 1 hour. Plates were washed and AFFIMER® polypeptides were detected using streptavidin-HRP. After a last washing step, TMB was added for the development of the experiment and plates were read at 450 nm.

[4] = target: T1, human PD-L1-Fc (R&D Systems) chimeric …; assay: Biacore single cycle kinetics on human PD-L1 Fc
human serum albumin [5] = target: T2, human serum albumin (human, UniProt P02768 25-609); assay: binding ELISA on coated HSA, pH 7.4
T2 construct: mature; Bought protein; biotinylated in the Octet and HTRF assays; also called HSA; HuSA
Protocol: After saturation with 5% PBS Casein pH 7.5, plates were washed and a dilution of AFFIMER® polypeptides or controls were incubated for 90 minutes. Plates were then washed, and a biotinylated polyclonal antibody anti-cystatin A (R&D Systems) was added for 1 hour. Plates were washed and AFFIMER® polypeptides were detected using streptavidin-HRP. After a last washing step, TMB was added for the development of the experiment and the plates were read at 450 nm.

human serum albumin [6] = target: T2, human serum albumin; assay: SPR (Biacore), immobilised HSA, Affimer analyte
Protocol: Affinities for mouse, human, and cynomolgus serum were also measured at pH 7.4 for four (4) AFFIMER® binders using surface plasmon resonance (SPR) (FIG. 5, Table 5). […] A concentration titration of AFFIMER® monomers was run as analyte at a flow rate of 30 μl/min or 60 μl/min. Fc2-1, Fc3-1 and Fc4-1 kinetic data was blank subtracted and fit to a 1:1 Langmuir binding model (BIAcore Evalution software; GE) to calculate KD values. […]

T1 sequence (Q9NZQ7 19-239, change not shown): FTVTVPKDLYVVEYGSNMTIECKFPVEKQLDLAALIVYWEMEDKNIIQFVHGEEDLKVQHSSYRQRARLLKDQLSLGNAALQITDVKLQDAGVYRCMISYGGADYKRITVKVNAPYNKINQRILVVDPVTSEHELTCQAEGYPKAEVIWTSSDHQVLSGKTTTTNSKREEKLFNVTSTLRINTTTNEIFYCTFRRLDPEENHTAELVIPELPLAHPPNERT
Sequence of human PD-L1 (PD-1/PD-L1 blockade Bioassay, Promega) (Q9NZQ7 19-290 limits assumed): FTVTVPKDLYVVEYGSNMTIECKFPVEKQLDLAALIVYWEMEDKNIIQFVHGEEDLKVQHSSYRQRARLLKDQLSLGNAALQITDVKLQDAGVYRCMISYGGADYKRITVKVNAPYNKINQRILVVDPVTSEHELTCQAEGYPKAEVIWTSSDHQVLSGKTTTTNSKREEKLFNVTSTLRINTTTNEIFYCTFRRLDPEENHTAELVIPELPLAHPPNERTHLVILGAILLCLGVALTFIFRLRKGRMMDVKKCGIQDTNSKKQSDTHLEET

B1: AVA04-251 BH (designed binder)
chain: MIPRGLSEAKPATPEIQEIVDKVKPQLEEKTNETYGKLEAVQYKTQVLAREGRQDWVLSTNYYIKVRAGDNKYMHLKVFNGPWVPFPHQQLADRVLTGYQVDKNKDDELTGFAEAAAKEAAAKEAAAKEAAAKEAAAKEAAAKMIPRGLSEAKPATPEIQEIVDKVKPQLEEKTNETYGKLEAVQYKTQVLAREGRQDWVLSTNYYIKVRAGDNKYMHLKVFNGPWVPFPHQQLADRVLTGYQVDKNKDDELTGFHHHHHH
notes: also called anti-PD-L1 parental ILF dimer molecule
- IC50 as headed on the sheet (EC50); PD-1/PD-L1 blockade Bioassay (Promega), fold change relative to assay buffer [1]: 893 nM
- Kd [2]: 1.71 nM
- koff [2]: 0.00129 s⁻¹
- kon [2]: 752000 M⁻¹ s⁻¹
- EC50 [3]: 0.03 nM

B2: AVA04-251 XT14 (designed binder)
chain: MIPRGLSEAKPATPEIQEIVDKVKPQLEEKTNETYGKLEAVQYKTQVLAREGRQDWVLSTNYYIKVRAGDNKYMHLKVFNGPWVPFPHQQLADRVLTGYQVDKNKDDELTGFAEAAAKEAAAKEAAAKEAAAKEAAAKEAAAKMIPRGLSEAKPATPEIQEIVDKVKPQLEEKTNETYGKLEAVQYKTQVLAREGRQDWVLSTNYYIKVRAGDNKYMHLKVFNGPWVPFPHQQLADRVLTGYQVDKNKDDELTGFAEAAAKEAAAKEAAAKEAAAKEAAAKEAAAKMIPRGLSEAKPATPEIQEIVDKVKPQLEEKTNETYGKLEAVQYKTQVLANFFQRRWPGSTNYYIKVRAGDNKYMHLKVFNGPWKFRNTDRGADRVLTGYQVDKNKDDELTGFHHHHHH
- IC50 as headed on the sheet (EC50); PD-1/PD-L1 blockade Bioassay (Promega), fold change relative to assay buffer [1]: 176 nM
- Kd [4]: 0.307 nM
- koff [4]: 0.000277 s⁻¹
- kon [4]: 903000 M⁻¹ s⁻¹
- EC50 (human serum albumin [5]): 0.062 nM
- Kd [2]: 0.504 nM
- koff [2]: 0.00042 s⁻¹
- kon [2]: 834000 M⁻¹ s⁻¹
- Kd (human serum albumin [6]): 8.75 nM
- koff (human serum albumin [6]): 0.00282 s⁻¹
- kon (human serum albumin [6]): 322000 M⁻¹ s⁻¹
- EC50 [3]: 0.033 nM

B3: AVA04-251 XT15 (designed binder)
chain: MIPRGLSEAKPATPEIQEIVDKVKPQLEEKTNETYGKLEAVQYKTQVLAREGRQDWVLSTNYYIKVRAGDNKYMHLKVFNGPWVPFPHQQLADRVLTGYQVDKNKDDELTGFAEAAAKEAAAKEAAAKEAAAKEAAAKEAAAKMIPRGLSEAKPATPEIQEIVDKVKPQLEEKTNETYGKLEAVQYKTQVLANFFQRRWPGSTNYYIKVRAGDNKYMHLKVFNGPWKFRNTDRGADRVLTGYQVDKNKDDELTGFAEAAAKEAAAKEAAAKEAAAKEAAAKEAAAKMIPRGLSEAKPATPEIQEIVDKVKPQLEEKTNETYGKLEAVQYKTQVLAREGRQDWVLSTNYYIKVRAGDNKYMHLKVFNGPWVPFPHQQLADRVLTGYQVDKNKDDELTGFHHHHHH
- IC50 as headed on the sheet (EC50); PD-1/PD-L1 blockade Bioassay (Promega), fold change relative to assay buffer [1]: 434 nM
- EC50 (human serum albumin [5]): 0.039 nM
- Kd [2]: 0.704 nM
- koff [2]: 0.000607 s⁻¹
- kon [2]: 863000 M⁻¹ s⁻¹
- Kd (human serum albumin [6]): 5.2 nM
- koff (human serum albumin [6]): 0.0029 s⁻¹
- kon (human serum albumin [6]): 557000 M⁻¹ s⁻¹
- EC50 [3]: 0.064 nM
